Drawing on publication PMC3669411, “Characterization of Flavin-Based Fluorescent Proteins: An Emerging Class of Fluorescent Reporters” (PLoS ONE, 2013), this text covers Fholo and stoichiometry N for three compounds.

One assay concerns the target T1, iLOV (Arabidopsis thaliana, UniProt P93025, S394T/S409G/C426A/I452T/F470L/M475V).
T1 construct: gene PHOT2; primers give start MIEKNFVI, end LDGSDHV
The experiment in a line: absorbance at […] nm vs Bradford total protein, as purified. It is filed as binding. The conditions noted are these: FMN-bound fraction of purified protein; noncovalent.

Assay [1] concerns the target EcFbFP, FMN-based fluorescent protein derived from the N-terminal LOV domain of Bacillus subtilis YTVA (E. coli codon-optimized gene) (Bacillus subtilis) (UniProt O34627). Description: SEC; Superdex 200 gel filtration on AKTA FPLC, calibrated with globular protein standards; 0.15 M NaCl (methods name phosphate buffered saline); oligomeric state = estimated mass divided by calculated monomer mass (110 Da per amino acid); mean of duplicates.

Assay [2] shares this target. The experiment in a line: SEC; Superdex 200 gel filtration on AKTA FPLC, calibrated with globular protein standards; 1 M NaCl (20 mM Tris hydrochloride, 1 M NaCl, pH 8.0); oligomeric state = estimated mass divided by calculated monomer mass (110 Da per amino acid); mean of duplicates.
Assay [3] has the same target. The experiment in a line: SEC; Superdex 200 gel filtration on AKTA FPLC, calibrated with globular protein standards; 0.5 M NaCl; oligomeric state = estimated mass divided by calculated monomer mass (110 Da per amino acid); mean of duplicates.
Assay [4] deals with PpFbFP, FMN-based fluorescent protein from Pseudomonas putida (Pseudomonas putida) (UniProt Q88JB0). Description: SEC; Superdex 200 gel filtration on AKTA FPLC, calibrated with globular protein standards; 0.15 M NaCl (methods name phosphate buffered saline); oligomeric state = estimated mass divided by calculated monomer mass (110 Da per amino acid); mean of duplicates.
The target is the same in assay [5]. Description: SEC; Superdex 200 gel filtration on AKTA FPLC, calibrated with globular protein standards; 1 M NaCl (20 mM Tris hydrochloride, 1 M NaCl, pH 8.0); oligomeric state = estimated mass divided by calculated monomer mass (110 Da per amino acid); mean of duplicates.
For assay [6] the target is unchanged. Description: SEC; Superdex 200 gel filtration on AKTA FPLC, calibrated with globular protein standards; 0.5 M NaCl; oligomeric state = estimated mass divided by calculated monomer mass (110 Da per amino acid); mean of duplicates.

T1 sequence (P93025 387-496 S394T/S409G/C426A/I452T/F470L/M475V): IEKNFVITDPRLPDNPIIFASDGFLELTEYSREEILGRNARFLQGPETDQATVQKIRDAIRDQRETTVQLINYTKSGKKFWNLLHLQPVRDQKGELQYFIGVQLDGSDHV

Take `Cc1cc2nc3c(=O)[nH]c(=O)nc-3n(C[C@H](O)[C@H](O)[C@H](O)COP(=O)(O)O)c2cc1C` [FMN]: at iLOV, the Fholo was 0.39±0.01.
As to “EcFbFP, FMN-based fluorescent protein derived from the N-terminal LOV domain of Bacillus subtilis YTVA (E. coli codon-optimized gene) (from UniProt O34627 20-147) (domain or fragment)”, the stoichiometry N in assay [1] was 1.9; in assay [2] it was 1.6; in assay [3], 1.7.
Consider “PpFbFP, FMN-based fluorescent protein from Pseudomonas putida (from UniProt Q88JB0 1-151) (natural protein)”, for which the stoichiometry N in assay [4] is 1.9; in assay [5], 1.5; in assay [6], 1.7.
